Data as given in patent publication US20180112000A1 (MILTENYI BIOTEC, published 2018).

Assays:
[1] = target: T1, recombinant CD28 antigen (extracellular domain, expressed in mammalian cells) (UniProt P10747 19-152, limits assumed); experiment: SPR (Biacore), CD28 ECD on CM5 chip, Fab as analyte
T1 construct: extracellular domain; Immobilized on a CM5 chip by amine coupling; also called T-cell-specific surface glycoprotein CD28
Protocol: (§1) Therefore, recombinant CD28 antigen (extracellular domain, expressed in mammalian cells) was immobilized on a CM5 chip by standard amine coupling. The Fab variants were used as analytes in HBS-EP buffer (0.01 M HEPES pH 7.4, 0.15 M NaCl, 3 mM EDTA, 0.005% v/v Surfactant P20) in a concentration of 50 μg/mL. Evaluation was conducted with the BIAeval Software using an 1:1 binding mass transfer model.

[2] = target: T1, recombinant CD28 antigen (extracellular …); experiment: SPR (Biacore), CD28 ECD on CM5 chip, Fab as analyte at 50 ug/mL, 1:1 binding mass transfer model
Protocol: as §1

Row | affinity [%] (by KD, chCD28 Fab set to 100%) [1] | Kd [2] [nM] | koff [2] [s⁻¹] | kon [2] [M⁻¹ s⁻¹] | Binder
1 | 60 | 53 | 0.021 | 400000 | huCD28_v4 Fab (humanized) (Fab, V domains shown, not shown: small tags and cut ends, Humanized 15E8 Fab expressed in E. coli periplasm) VH: QVQLQESGPGLVKPSETLSLTCTVSGFSLTSYGVHWIRQPPGKGLEWLGVIWAGGSTNYNSSLKSRVTISKDTSKNQVSLKLSSVTAADTAVYYCARDKRAPGKLYYGYPDYWGQGTTLTVSS VL: DIVMTQSPDSLAVSLGERATINCRASESVEYYVTSLMQWYQQKPGQPPKLLIYAASNVESGVPARFSGSGSGTDFTLTISPLQAEDVAVYYCQQTRKVPSTFGGGTKLEIKR
2 | 76 | 42 | 0.08 | 1.9e+06 | huCD28_v1 Fab (humanized) (Fab, V domains shown, not shown: small tags and cut ends, Humanized 15E8 Fab expressed in E. coli periplasm) VH: QVQLQESGPGLVKPSETLSLTCTVSGFSLTSYGVHWVRQPPGKGLEWLGVIWAGGSTNYNSALMSRLTISKDTSKNQVSLKLSSVTAADTAVYYCARDKRAPGKLYYGYPDYWGQGTTLTVSS VL: DIVMTQSPDSLAVSLGERATINCRASESVEYYVTSLMQWYQQKPGQPPKLLIYAASNVESGVPDRFSGSGSGTDFTLTISSLQAEDVAVYYCQQTRKVPSTFGGGTKLEIKR
3 | 62 | 52 | 0.026 | 500000 | huCD28_v3 Fab (humanized) (Fab, V domains shown, not shown: small tags and cut ends, Humanized 15E8 Fab expressed in E. coli periplasm) VH: QVQLQESGPGLVKPSETLSLTCTVSGFSLTSYGVHWIRQPPGKGLEWLGVIWAGGSTNYNSSLKSRVTISKDTSKNQVFLKLSSVTADDTAVYYCARDKRAPGKLYYGYPDYWGQGTTLTVSS VL: DIVMTQSPDSLAVSLGERATINCRASESVEYYVTSLMQWYQQKPGQPPKLLIYAASNVESGVPARFSGSGSGTDFTLTISPLQAEDVAVYYCQQTRKVPSTFGGGTKLEIKR
4 | 35 | 92 | 0.055 | 600000 | huCD28_v2 Fab (humanized) (Fab, V domains shown, not shown: small tags and cut ends, Humanized 15E8 Fab expressed in E. coli periplasm) VH: QVQLQESGPGLVKPSETLSLTCTVSGFSLTSYGVHWVRQPPGKGLEWIGVIWAGGSTNYNPSLKSRVTISKDTSKNQFSLKLSSVTAADTAVYYCARDKRAPGKLYYGYPDYWGQGTTLTVSS VL: DIVMTQSPDSLAVSLGERATINCKSSESVEYYVTSLLQWYQQKPGQPPKLLIYAASNRESGVPDRFSGSGSGTDFTLTISSLQAEDVAVYYCQQTRKVPSTFGGGTKLEIKR
5 | 100 | 32 | 0.032 | 1e+06 | chCD28 Fab (chimeric) (Fab, V domains shown, Fab expressed in E. coli periplasm; not shown: Fabs were purified by IMAC) VH: QVQLKESGPGLVAPSQSLSITCTVSGFSLTSYGVHWVRQPPGKGLEWLGVIWAGGSTNYNSALMSRLSISKDNSKSQVFLKMNSLQTDDTAMYYCARDKRAPGKLYYGYPDYWGQGTTLTVSS VL: DIVLTQSPASLAVSLGQRATISCRASESVEYYVTSLMQWYQQKPGQPPKLLIYAASNVESGVPARFSGSGSGTDFSLNIHPVEEDDIAMYFCQQTRKVPSTFGGGTKLEIKR
